Among the data in article PMC5561112, “Thermodynamic and Kinetic Analyses of Iron Response Element (IRE)-mRNA Binding to Iron Regulatory Protein, IRP1” are Kd values, retold here.

What all share (details): protein: recombinant; label: 5' fluorescein; hairpin
For series [1], the target named is T1, IRP1 (iron regulatory protein 1) (rabbit, UniProt Q01059 1-889).
T1 sequence: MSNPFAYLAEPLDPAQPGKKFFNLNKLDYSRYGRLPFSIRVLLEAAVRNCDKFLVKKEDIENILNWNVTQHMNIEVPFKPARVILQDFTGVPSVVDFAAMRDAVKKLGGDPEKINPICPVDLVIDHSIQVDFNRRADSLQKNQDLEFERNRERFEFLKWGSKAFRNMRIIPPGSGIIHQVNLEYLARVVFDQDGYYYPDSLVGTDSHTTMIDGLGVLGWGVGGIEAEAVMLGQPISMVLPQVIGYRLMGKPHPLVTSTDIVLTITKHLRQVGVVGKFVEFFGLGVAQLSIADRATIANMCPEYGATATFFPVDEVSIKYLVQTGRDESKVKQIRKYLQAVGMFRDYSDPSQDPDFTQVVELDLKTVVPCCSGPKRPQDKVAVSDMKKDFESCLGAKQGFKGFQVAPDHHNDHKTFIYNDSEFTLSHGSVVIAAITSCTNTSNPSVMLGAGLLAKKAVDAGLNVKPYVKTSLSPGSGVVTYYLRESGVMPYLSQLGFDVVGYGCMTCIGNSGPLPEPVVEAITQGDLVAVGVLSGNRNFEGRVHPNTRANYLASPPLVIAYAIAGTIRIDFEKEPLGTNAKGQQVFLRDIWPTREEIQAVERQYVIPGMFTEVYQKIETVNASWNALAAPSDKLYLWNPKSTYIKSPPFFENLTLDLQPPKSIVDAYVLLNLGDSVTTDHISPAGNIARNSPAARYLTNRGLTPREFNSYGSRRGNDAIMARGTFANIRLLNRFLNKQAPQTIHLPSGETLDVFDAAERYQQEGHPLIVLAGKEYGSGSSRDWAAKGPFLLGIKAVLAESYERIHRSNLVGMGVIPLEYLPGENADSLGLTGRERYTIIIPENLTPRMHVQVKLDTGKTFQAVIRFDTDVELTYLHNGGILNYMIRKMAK
In words: fluorescence anisotropy; 5 °C, no Mn2+; 40 mM HEPES pH 7.2, 100 mM KCl, 5-30 °C, ±50 µM Mn2+; labeled RNA 50 nM or 100 nM (Methods). (Fluorescence polarisation rises when a labelled molecule tumbles more slowly, as on binding a larger partner.)

For series [2], the target named is T1, IRP1 (iron regulatory protein 1). In words: fluorescence anisotropy; 10 °C, no Mn2+; 40 mM HEPES pH 7.2, 100 mM KCl, 5-30 °C, ±50 µM Mn2+; labeled RNA 50 nM or 100 nM (Methods).
Series [3] shares this target. In words: fluorescence anisotropy; 15 °C, no Mn2+; 40 mM HEPES pH 7.2, 100 mM KCl, 5-30 °C, ±50 µM Mn2+; labeled RNA 50 nM or 100 nM (Methods).
For series [4] the target is unchanged. In words: fluorescence anisotropy; 20 °C, no Mn2+; 40 mM HEPES pH 7.2, 100 mM KCl, 5-30 °C, ±50 µM Mn2+; labeled RNA 50 nM or 100 nM (Methods).
For series [5] the target is unchanged. In words: fluorescence anisotropy; 25 °C, no Mn2+; 40 mM HEPES pH 7.2, 100 mM KCl, 5-30 °C, ±50 µM Mn2+; labeled RNA 50 nM or 100 nM (Methods).
Series [6] shares this target. In words: fluorescence anisotropy; 30 °C, no Mn2+; 40 mM HEPES pH 7.2, 100 mM KCl, 5-30 °C, ±50 µM Mn2+; labeled RNA 50 nM or 100 nM (Methods).

B1: FRT IRE-RNA (ferritin IRE) (structured_RNA)
RNA: GUUCUUGCUUCAACAGUGUUUGAACGGAAC
The term Kd denotes the free concentration of one partner at which half of the binding sites on the other are occupied at equilibrium, for simple one-to-one binding. On to B1, for which the Kd is 4.6 ± 0.2 nM in series [1]; 7 ± 0.2 nM in series [2]; 8.6 ± 0.3 nM in series [3]; 11.7 ± 0.4 nM in series [4]; 14.2 ± 0.3 nM in series [5]; 19.2 ± 0.4 nM in series [6].

B2: ACO2 IRE-RNA (mitochondrial aconitase IRE) (structured_RNA)
RNA: CCUCAUCUUUGUCAGUGCACAAAAUGGCG
Regarding B2, the Kd in series [1] is 55.9 ± 3 nM; in series [2], 69.6 ± 5 nM; in series [3] it was 89 ± 3 nM; in series [4], 101 ± 7 nM; in series [5], 129 ± 3.3 nM; in series [6] it was 155 ± 4 nM.
